Results taken from publication PMC6224492 (2018).
The star is where a group is joined. FITC = O=C1OC2(c3ccc(O)cc3Oc3cc(O)ccc32)c2ccc(NC(=S)*)cc21; Ahx = NCCCCCC(=O)O

Tests used:
[1] = target: full-length PPARγ (isoform 2), delipidated, no ligand (human) (UniProt P37231); experiment: FP
[2] = target: T1, full-length PPARγ with GW1929 (Homo sapiens); experiment: FP; GW1929
T1 chain: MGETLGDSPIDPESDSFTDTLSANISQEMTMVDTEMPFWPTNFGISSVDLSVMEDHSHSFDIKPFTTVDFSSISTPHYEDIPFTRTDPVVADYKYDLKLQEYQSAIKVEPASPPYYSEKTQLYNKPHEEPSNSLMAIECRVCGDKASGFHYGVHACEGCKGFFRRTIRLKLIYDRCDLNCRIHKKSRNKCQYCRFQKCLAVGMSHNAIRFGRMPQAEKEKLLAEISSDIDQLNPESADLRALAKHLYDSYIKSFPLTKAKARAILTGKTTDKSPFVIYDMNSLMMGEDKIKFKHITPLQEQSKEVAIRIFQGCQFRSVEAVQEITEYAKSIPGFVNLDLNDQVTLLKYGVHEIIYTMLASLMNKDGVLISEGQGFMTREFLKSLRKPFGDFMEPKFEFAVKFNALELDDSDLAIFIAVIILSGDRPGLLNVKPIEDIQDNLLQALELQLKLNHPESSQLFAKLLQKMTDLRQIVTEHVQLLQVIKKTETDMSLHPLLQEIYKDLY

| Molecule | Kd [1] | Kd [2] |
| --- | --- | --- |
| FITC-labeled NCoR1 corepressor peptide (residues 2256-2278) | 7.4 µM | – |
| {FITC-Ahx}-DPASNLGLEDIIRKALMGSFDDK-NH2 [FITC-labeled NCoR1 corepressor peptide (residues 2256-2278)] | – | 9 µM |
